Target: RadA recombinase (Pyrococcus abyssi, UniProt Q9V233 1-353)
Test: EMSA; no ATP; 25 nM ssDNA, RadA 0-6.4 uM; 20 mM Tris-HCl pH 8.0, 50 ug/mL BSA, 2 mM DTT, 0.5% Triton, 65 C, 10 min; 0.75% native agarose gel
Conditions: protein: recombinant; tags: none (untagged); label: 5' HiLyte Fluor 647; single strand

RadA recombinase, sequence (Q9V233 whole entry): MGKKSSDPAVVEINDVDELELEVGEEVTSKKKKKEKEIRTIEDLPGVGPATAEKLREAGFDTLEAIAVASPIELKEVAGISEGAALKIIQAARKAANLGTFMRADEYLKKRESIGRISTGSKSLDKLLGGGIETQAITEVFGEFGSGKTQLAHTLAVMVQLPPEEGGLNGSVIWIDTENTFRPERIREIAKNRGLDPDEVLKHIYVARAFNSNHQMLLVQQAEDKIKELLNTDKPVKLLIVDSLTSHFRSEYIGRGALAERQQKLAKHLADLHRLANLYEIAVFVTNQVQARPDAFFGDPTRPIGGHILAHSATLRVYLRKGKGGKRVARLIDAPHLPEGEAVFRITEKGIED

B1: L93-5'HL 647 (93-mer ssDNA) (ssDNA)
DNA: AAAGGCGGTAATACGGTTATCCACAGAATCAGGGGATAACGCAGGAAAGAACATGTGAGCAAAAGGCCAGCAAAAGGCCAGGAACCGTAAAAA
Does B1 bind?
Result: binds
